The nanobody polyreactivity screen of Harvey et al. (2022)

Experiment: yeast display, Sf9 membrane polyspecificity reagent, FACS + sequencing; frameworks hold sequencing errors
How it was run: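 A synthetic nanobody library was expressed on Saccharomyces cerevisiae BJ5465 by galactose induction for 36–48 hours. The library was stained for 1 hour at 4 °C with 10% biotinylated, detergent-solubilized Sf9 membrane reagent and enriched with streptavidin microbeads before FACS. Low and high (top ~1%) gates were set on anti-HA fluorescence for expression and streptavidin fluorescence for reagent binding, and each polyreactivity label reflects the gate of origin.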

Sequence | polyreactivity (PSR sort gate)
QVQLVESGGGLVQAGGSLRLSCAASGSTFGGNGMGWYRQAPGKEREFVATITWRSGSTYYADSVKGRFTISRDKAKNTVYLKMNILKPEDSAVYYCAKYTSSRRNTWYYYWGQGTEVTVSS | high polyreactivity
QVQLVESGGGLVQAGGSLRLSCAASRFTFSYYAMVWYRKAHVKERELVAAISWRGGTPYADSVKGRFTISRDNAKKTVYLQMNSLKPEDTAVYYCNTAYQVYWRGNYWGQGTQVTVSS | high polyreactivity
QVQLVESGGGLVQAGGSLRLSCAASGRTVAPYAMGWYRPAPGKERELVAGITYRTGNTYYADSVKGRFTISRDNAKNTVYLQMNSLKPEDTAVYYCAAYSGYYRPRYNFWGQGTQVNVSS | high polyreactivity
QVQLVESGGGLVQAGGSLRLSCAASGSIFPGYAMGWYRQAPGKERELVATITWSGGSTYYADSVKGRFTISRDNAKNTVYLQMNSLKPEDTAVYYCAADGVDRYLRTISYLYGYWGQGTQVTVSS | low polyreactivity
QVQLVESGGGLVQAGGSLRLSCAASGSTFYTNAMGWYRQAPGKERELVAASNYSGGSTYYADSVKGRFTISRDNAKNTVYLQMNSLKPEDTAVYYCATDLHWLVTKYGYWGQGTQVTVSS | low polyreactivity
QVQLVESGGGLVQAGGSLRLSCAASASIYFPYTMGWYRQAPGKERELVARISLGGGRTYYADSVKGRFTISRDNAKNTVYLQMNSLKPEDTAVYYCAAVYYYGKWSYGYWIYEYWGQGTQVTVSS | high polyreactivity
QVQLVESGGGLVQAGGSLRLSCAASGSTFGRNAMGWYRQAPGKERELVASISWGGGSTYYADSVKVRFTISRDNAKNNVYLQMNSLKPEDTAVYYCAAGLAYWYWRGYDYWGQGTQVTVSS | high polyreactivity
QVQLVETGGGLVQAGGSLRLRCAASGSIFGGYAMGWYRQAPGKERELVAAISSGGSTYYADSVKGRFTISRDNAKNTVYLQMNSLKPEDTAVYYCATSTYAYRRNSYYYTRPRFGYWGQGTQVTVSS | high polyreactivity
QVQLVESGGGLVQAGGSLRLSCAASGRTFKRNAMGWYRQAPGKERELVAGISGSGTTTYYADSVKGRFTISRDNAKNTVYLQMNSLKPEDTAVYYCAARALSHGARYDYWGQGTQVTVSS | high polyreactivity
QVQLVESGGGLVQAGGSLRLSCAASGNIFIHYAMGWYRQAPGKERELVAAITWSGGSTYYADSVKGRFTISRDNAKNTVYLQMNSLTPEDTAVSYCNSVSKYGPADGYGDYWGQGTQVTVSS | high polyreactivity
QVQLVESGGGLVQAGGSLRLSCAASGRIFTWSTMGWYRQAAGTERELVAAINRGGSTTYADSVKGRFTISRDNAKNTVYLQMNSLKPEDTAVYYCAAYRSTSRVYSNWRGYDYWGQGTQVTVSS | high polyreactivity
QVQLVESGGGLVQAGGSLRLSCASSGSTFARNAMGWYRQAPGKERELVAAISWRGGSTYYADSVKGRFTISRDNAKNTVYLQKNSLKPEDTAVYYCAADGAYWRGTGYEYWGQGTQVTVSS | high polyreactivity
QVQLVESGGGLVQAGGSLRISCAASGSTFGRYAMGWYRQAPGKEREFVAAITQGGTNTYYADSVKGRFTISRDNAKNTVYLQMNSLKPEDTAVYYCARVRRYPLRYNYWGQGTQVTVSS | high polyreactivity
QVQLVESGGGLVQAGGSLRLSCAASGRTFRYYAMGWYRQAPGKERELVAAITGSGGSTYYADSVKGRFTISRDTAKNTVYLQMNSLKPEDTAVYYCATRWALRWRGGYWGQGTQVTVSS | high polyreactivity
QDQLVESGGGVVQAGGSLRLSCAASGSIFAYNAMGWYRQAPGKERELVAAITDSGGSTFYADSVKGRFTISRDNAKNTVYLQMNSLKPEDTAVYYCATSGDRLVWGQGTQVTVSS | low polyreactivity
QVQLVESGGGLVQSGGSLRLSCAASGSIFYLYAMGWYRQAPGKERELVAAISWTGGSSYYADSVKGRFTISRDNAKNTVYLQMNSLKPEDTAVYYCAADRVLGGPQPGGSSFRGDYWGQGTQVTVSS | low polyreactivity
QVQLVESGGGLVQAGGSLRLSCAASGFIFGYNTMGWYRQAPGKERELVAAISWSGGSTYYADSVKGRFTISRVNAKNSVYLQMNSLKPEDTAVYYCATVSRSYSELDYWGQGTQVTVSS | low polyreactivity
QVQLVESGGGLVQAGGSLRLSCAASGITFGYYAMGWYRQAPGKERELVAAINWSGGSTYYADSVKGRFTISRDNAKNTVYLQMNSLKPEDTAVYYCNARPFNRYYREYDYWGQGTQVTVSS | high polyreactivity
QVQLVESVGGLVQAGGSLPLSSAASGSIFYRYALGWYRQAPGKERELVAAISDRSGSTYYADSVKGRFTISRDNAKNTVYLQMNSLKPEATAVYYCAASYNYRAAGYGLSRYYYWGQGTQVTVSS | high polyreactivity
QVQLEESGGGLVQAGGSLRLSCAPSGYNYRKNVIGWYRQAPGKERELVAAISARGGSTYYADSVKGRFTISRDNAKNTVYLQMYSLKAEVTAVYFCNTDGYLYPYDSWGLGTQVTVSS | high polyreactivity
QVQLVESGGGLVQAGGSLRLSCAASGRTFLWNAMGWYRQAPGKERELVAAISISGGNTNYADSVKGRFTISRDNAKNTVYLQINSLKPEDTAVYYCNADPRAEPGDWSYEMDYWGQGTQVTVSS | low polyreactivity
QVQLVESGGGLVQAGGSLRLSCAASGRTFESYGMGWYRQAPGKERELVAAITWSGGDTYYADSVKGRFTISRDNAKNTVYLQMNSLKPEDTAVYYCAKEQGLYSVSPYDYWGQGTQVTVSS | low polyreactivity

Sequence | polyreactivity (PSR sort gate)
QVQLVESGGGLVQAGGSLRLSCAASGSTFIIYAMGWSRQAPGKERELVAAITRDGSTYADSVKRRFTISRDNAKNTVYLQMNRLKPEDTAVYYCAATSRQGYDYWGQGTEVTVSS | high polyreactivity
QVQLVESVGGLVQAGGSLRLSCAASGRIFAVYAMGWYRQAPGKEREFVAAISYSGGITYYADSVKGRFTISRDNAKNTVYLQMNSLKPEDTAVYYCNAYYYFWGQGTQVTVSS | low polyreactivity
QVQLVESGGGLVQAGGSLRLSCAASGNIFKYYAMGWYRQAPGKERELVAAISWGGSRTYYADSVKGRFTISRDNAKNTVYFQMNILKPEDSAVYYCAAAPRYSWTSVPRYDYWGLGTQVTVSS | high polyreactivity
QVQLVESGGGLVQAGGSLRLSCAASGSTFHPNTMGWYRQAPGKERELGARISSGGSTNYADSVKGRFTISRDNAKNTVYLQMNSLKPEDTAVYYCAARTAFSGARGRGGYWGQGTQVTVSS | high polyreactivity
QVQLVESGGGLVQAGGSLRLSCAASGITFSYYAMGWYRQAPGKERELVAAISRTGTSTYYADSVKGRFTISRDNAKNTVYLQMNSLKPEDTAVYYCAARYYYWGQGTQVTVSS | high polyreactivity
QVQLVESGGGLVQAGGSLRLSCAASGSTFQPYTMGWYRQAPGTERELVAAITGRGGSTYYADSVKGRFTISRDNAKNTVYLQMNSLKPEDTAVYYCAAGAYRRNKSDYYYWGQGTQVTVSS | low polyreactivity
QVQLVESGGGLVQAGGSLRLSCAASGSTFIGYTMGWYRQAPGKERELVAAIRYSSGRTYYADSVKGRFTISRDNAKNTVYLQMNSLKPEDTAVYYCAAANPRDHRGANDYWGQGTQVTVSS | high polyreactivity
QVQLVESGGGLVQAGGSLRLSCAASGRTFGRYAMGWYRQAPGKERELVATISSRGGNTYYADSVKGRFTISRDNAKNTVFLQMNSLKPEDTAVYYCAADVYSSDYDYWGQGTQVNVSS | high polyreactivity
QVQLVESGGGLVQAGGSLRLSCAASGFTFATNAMGWYTPAPGKERELVAVISSGGSTYYADSVKGLFTISRDNAKNTVYLQMNRLKPEDTAVYYCNAGRKVRGALDGYDYWGQGTQVTVSS | high polyreactivity
QVQLVESGGGLVQAGGSLRLSCAASGITFSYYTLGWYRQAPGKERELFARINSGGTTNYADSVKGRFTISRDNAKNTVYLQMNSLKPEDTAVYYCAAEWVSWRWAHKFDYWGQGTQVTVSS | high polyreactivity
QVHLVESGGGIVQAGGSLRLSCAASGFTFRRYAMGWYRQAAGKERELVATITKGGGRTYYADSVKGRFTISRDNAKNTVYLQMNSLKPEDTAVFYCNASLTYDYNYWGPGTQVTVSS | high polyreactivity
QVQLVESGGGLVQAGGSHRLSCAASGRIIESYAMGWYRQAPGKERELVAAISSNDGSTYYADSVKGRFTISRDNAKNTVYLQMNSLKPEDTAVYDCAAELGQVDYGGPSYDYWGQGTQVTVSS | low polyreactivity
QVQPQESGVGLVQAGGSLRLSCAASGTIFAFQTMGWYRQAPGKERELVASITYGSSTNYADSVKGRFTISRDNAKNTVYLLMNRLKPEDTAVYYCAVPQAQYYYDYWGQGTQVTVSS | high polyreactivity
QVQLVESGGGLVQAGGSLRISCDASGSTFAWYAMGWYRQAPGKERELVAAISRTGRTYYADSVKGRFTISRDNAKNTVYLQMNRLTPEDTAVYYCAGRIERFYRDQRYDYWGQGTQVTVSS | high polyreactivity
QVQLVESGGGLVQAGGSLRLSCAASGSIFVLYTMGWYRQAPGKERELVAAISYSGGSTNYADSVKGRFTISRDNAKNTVYLQMNSLKPEDTAVYYCAARASKGHKYWGQGTQVTVSS | high polyreactivity
QVQLVESGGGLVQAGGSLRLSCAASGLTFYVYAMGWYRQAPGKERELVAAISSGGRTYYADSVKGRFTISRDNAKNTVYLQMNSLKPEDTAVYYCAAVRHRNYGYWGQGTQVTVSS | high polyreactivity
QVQLVESGGGLVQAGGSLRLCCAASGLTFYPNAMGWYRQAPGKEREFVASISISGRTYYADSVKGRFTISRDNAKNTVYLQMNSLKPEDTAVYYCAARYVRSGLYRKYDYWGQGTQVTVSS | high polyreactivity
QVQLVESGGGLVQAGCSLLLICADSGFIFYGYVMGWYRQAPGKEMEWVAGITSSGTSTYADSVKGRFTISRDNAKNTVFLQMNSLKPEDTAAYYCAALRRQYGARDYDYWGQGTQVTVSA | low polyreactivity
QVQLVESGGGLVQAGGSLRLSCAASGGTFTVNAMGLYRQAPGKERELVAAITWDGGTTYYADSVKGRFTISRDNAKNTVYLQMNSLKPEDSAVYYCAAEVDYSAFDYWGQGTQVTVSS | low polyreactivity
QVQLVESGGGLVQAGGSLRLSCAASGSIFVYYAMGWYRQAPGKEREFVATISSSGGSTYYADSVKGRFTISRDNAKNTVYLQRNSLKPEDTAVYYCNRRYFFFYGHSFDYWGQGTQVTVSS | high polyreactivity
QVQLVESGGGLVQAGGSLRLSCAASGSIFFINAMGWYRQAPGKERELVASISQSGVSTYYADSVKGRFTISRDNAKNTVYLQMNSLKPEDTAVYYCATGPVRRARYVWSYTYYYWGQGTQVTVSS | low polyreactivity
